Target: T1, PABPC1 RRM1/2/3/4 (residues 1-370) (human, UniProt P11940 1-370)
T1 construct: human PABPC1, residues 1-370 (RRM1 to RRM4), cloned into pET-42b(+); Used in complex with long poly(A) or A24 RNA; Purification details are in the Supplementary methods; source: E. coli, purified (Glutathione-Sepharose 4B, GST cleaved off, cation exchange, gel filtration)
Assay: NMR titration; 1H-15N HSQC of 15N-labelled Lt2 (100 μM) with RRM1/2/3/4-A24 at 50, 100 and 150 μM; chemical shift changes of W437 side chain, W437 and T438 fitted to a 1:1 model; not saturated; 303 K, 26 mM NaH2PO4 pH 6.0, 100 mM NaCl
Conditions: both partners purified

T1 sequence (P11940 1-370): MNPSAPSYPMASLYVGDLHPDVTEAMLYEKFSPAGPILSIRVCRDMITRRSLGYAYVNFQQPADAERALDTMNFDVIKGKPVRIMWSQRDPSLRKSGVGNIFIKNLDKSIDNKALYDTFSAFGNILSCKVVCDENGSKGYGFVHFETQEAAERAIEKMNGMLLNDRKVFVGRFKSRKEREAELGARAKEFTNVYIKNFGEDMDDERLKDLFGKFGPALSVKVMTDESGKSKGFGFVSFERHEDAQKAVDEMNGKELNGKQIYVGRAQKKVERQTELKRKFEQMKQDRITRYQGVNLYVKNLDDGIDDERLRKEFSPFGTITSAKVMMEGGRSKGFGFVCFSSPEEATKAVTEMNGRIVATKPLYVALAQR

B1: PABPC1 linker fragment Lt2 (residues 421-470) (peptide, UniProt P11940 421-470, looked up)
chain: AYYPPSQIAQLRPSPRWTAQGARPHPFQNMPGAIRPAAPRPPFSTMRPAS
notes: human PABPC1, residues 421-470, cloned into pGEX-6p-1; Uniformly 15N-labelled for NMR
  Kd: 10 to 54 µM

Source: article PMC5780489, “Characterization of the multimeric structure of poly(A)-binding protein on a poly(A) tail” (Scientific Reports, 2018)
